The values below come from publication PMC11506057, “Identification of Podoplanin Aptamers by SELEX for Protein Detection and Inhibition of Platelet Aggregation Stimulated by C-Type Lectin-like Receptor 2”.

This data set concerns the target T1, podoplanin (PDPN), recombinant PDPN-His-Fc (UniProt Q86YL7 23-131).
T1 sequence: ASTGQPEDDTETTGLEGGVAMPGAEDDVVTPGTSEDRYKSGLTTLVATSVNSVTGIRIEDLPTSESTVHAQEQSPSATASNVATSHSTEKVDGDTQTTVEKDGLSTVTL
Kind of data set: BLI; BLI and dot blot: binding buffer B, 1x PBS, 5 mM MgCl2, 0.1% BSA, 0.01% yeast tRNA (BLI baseline in buffer A: 1x PBS, 5 mM MgCl2, 2 mM CaCl2, 1 mg/mL BSA, 0.1 mg/mL salmon sperm DNA); temperature and pH not given; flow cytometry at 4 C. The following applies: protein: commercial, tags: His. (Biolayer interferometry detects binding as a change in optical thickness at a sensor tip.)

Where [1] appears, read: chain copies: 2, label: biotin, parallel G-quadruplex (CD), stem-loop predicted.
[2] abbreviates: chain copies: 2, label: biotin, antiparallel G-quadruplex or B-DNA (CD).

B1: A6 (structured_DNA)
DNA: ATCCAGAGTGACGCAGCACACCGAGGGGACTGCTCGGGATTGCGGATGAGGTAGCAAGTGGACACGGTGGCTTAGT
Broadly, the Kd is a measure of binding affinity in units of concentration. As to B1, under setting [1], the Kd is 200 pM.

B2: A1498 (structured_DNA)
DNA: ATCCAGAGTGACGCAGCATGCAGGGTTTGGCTTCGGGCCTGGCGGAGAGAGCGTGAGGTGGACACGGTGGCTTAGT
For the molecule B2, the Kd under setting [2] amounted to 400 pM.

B3: A289 (structured_DNA)
DNA: ATCCAGAGTGACGCAGCACGGGTTTGGCGCCGGGCCTGGCGGGTGTAGCGTTTTTGGGTGGACACGGTGGCTTAGT
For the molecule B3, under setting [2], the Kd is 500 pM.

B4: A5 (structured_DNA)
DNA: ATCCAGAGTGACGCAGCATGCCAAAGGGTCTGCTCGGGATTGCGGAGAGGGCTTGGGGTGGACACGGTGGCTTAGT
Turning to B4, under setting [1], the Kd was 200 pM.

B5: A1 (structured_DNA)
DNA: ATCCAGAGTGACGCAGCATCACTAGTGCGCCAGGGGGACTGCTCGGGATTGCGGATACTGGACACGGTGGCTTAGT
Take B5: the Kd (chain copies: 2, label: biotin (BLI, dot blot, Western blot), FAM (flow cytometry), parallel G-quadruplex (CD), stem-loop predicted) is 1300 pM.

B6: A77 (structured_DNA)
DNA: ATCCAGAGTGACGCAGCATGGGGGGAGAGTGTGGTCTGGCTTGGTGGGGTCTGGGGGCTGGACACGGTGGCTTAGT
B6: the Kd under setting [1] was 1700 pM.
